B1: CC25.4 Fab with the VSRRLP elbow variant (for crystallization) (Fab, V domains shown)
VH: QVQLVQSGAEVKKPGASVKVSCKASGYTFTDYFLHWVRQAPGQGLEWMGWINPDSGGTNYAQRFQGRVTMTRDTSISTAYMEVSRLRSDDTAVYYCARDNERYQMQNYYHYYGMDVWGQGTTVTVVS
VL: not shown
B2: CC25.43 Fab with the […] elbow mutation and a shortened kappa FG loop (for crystallization) (Fab, V domains shown)
VH: EVQLVESGGGLVQPGGSLKLSCSASGFTLSDSAMHWVRQASGKGLEWVGRISSNVNNDATVYAASLKGRFTISRDESKNMAYLQMNSLKNEDTAVYYCTVVPVLEYYQYGMDVWGQGTTVTIFN
VL: DIQLTQSPSTLSASVGDRVIITCRASQSISTWLAWYQQRPGQAPKLLIYKASILQSGVPPRFSGSGSGTDFTLTISRLQPDDFATYYCQQYDSDSQPLTFGGGTKLEIK
B3: CC25.56 Fab with the […] elbow variant (for crystallization) (Fab, V domains shown)
VH: EVQLVQSGAEVKKPGESLKISCKGSGYTFTRHWIGWVRQMPGKGLEWMGVIYPGDSDTRYSPSFQGQVTVSADKSISTAYLQWSSLKASDTAMYFCARGGIAVASGAFDIWGQGTMVTVFN
VL: QSALTQPPSVSVAPGKTARITCGGNNIGSKSVHWYQQKAGQAPVVVIYYPSDRPSGIPERFSGSNSENTATLTISGVEAGDEADYYCQLWDTNSDHWVFGGGTKLTVL

Biological target: SARS-CoV-2 spike receptor-binding domain (RBD), wild type, residues 333-529 (SARS-CoV-2 Wuhan-Hu-1 (wild type), UniProt P0DTC2)
Assay: crystal structure

| Binder | binding result |
| --- | --- |
| B1 | binds |
| B2 | binds |
| B3 | binds |

Reference: publication PMC10168401 (bioRxiv, 2023)
